Reference: the supplement of paper PMC9112550, “Optimization of the antimicrobial peptide Bac7 by deep mutational scanning” (BMC Biology, 2022)

tested on: Escherichia coli TOP10; experiment: shrunken log2 fold change of peptide-encoding DNA abundance (4.5 h post-induction vs induction); higher = less antimicrobial activity (less host growth inhibition); conditions: time post-induction: 4.5 h; library: site-saturation at positions 5, 18, 19, 20
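Note: peptides expressed intracellularly from a pBAD plasmid library in pooled LB shake-flask culture, induced with 0.3% L-arabinose, DNA abundance read by NGS, three biological replicates, DESeq2 with apeglm shrinkage.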

Going from RRIRWRPPRLPRPRPRPEKPPRP to RRIRGRPPRLPRPRPRPSKIPRP, the “shrunken log2 fold change” value falls from 2.12 to 0.149.

Compared with RRIRTRPPRLPRPRPRPVQNPRP, RRIRWRPPRLPRPRPRPQDEPRP is lower in “shrunken log2 fold change” value: 0.138 for the first, -0.143 for the second.

First: RRIRLRPPRLPRPRPRPLYKPRP
Second: RRIRQRPPRLPRPRPRPPIDPRP
The “shrunken log2 fold change” value of the first is lower: -0.328 for the first, 0.00417 for the second.

Compared with RRIRPRPPRLPRPRPRPVLAPRP, RRIRTRPPRLPRPRPRPDYGPRP is lower in “shrunken log2 fold change” value: 0.668 for the first, 0.00355 for the second.

First: RRIRLRPPRLPRPRPRPKHDPRP
Second: RRIRRRPPRLPRPRPRPNRSPRP
The “shrunken log2 fold change” value of the first is lower: -0.0476 for the first, 0.339 for the second.

First: RRIRHRPPRLPRPRPRPKPYPRP
Second: RRIRRRPPRLPRPRPRPRHRPRP
The “shrunken log2 fold change” value of the first is lower: -0.277 for the first, 0.178 for the second.

RRIRFRPPRLPRPRPRPIMAPRP and RRIRARPPRLPRPRPRPNRMPRP are within 0.2 log units of each other in “shrunken log2 fold change” value: -0.0564 for the first, 0.0574 for the second.

First: RRIRVRPPRLPRPRPRPFSQPRP
Second: RRIRGRPPRLPRPRPRPICYPRP
The “shrunken log2 fold change” value of the first is lower: -0.0697 for the first, 0.543 for the second.

First: RRIRVRPPRLPRPRPRPRAIPRP
Second: RRIRRRPPRLPRPRPRPQENPRP
The “shrunken log2 fold change” value of the first is higher: 1.97 for the first, -0.0472 for the second.

Compared with RRIRCRPPRLPRPRPRPNDFPRP, RRIRSRPPRLPRPRPRPYYKPRP is lower in “shrunken log2 fold change” value: -0.241 for the first, -0.892 for the second.

RRIRNRPPRLPRPRPRPVINPRP and RRIRLRPPRLPRPRPRPFENPRP are within 0.2 log units of each other in “shrunken log2 fold change” value: -0.512 for the first, -0.388 for the second.

RRIRRRPPRLPRPRPRPKCGPRP and RRIRVRPPRLPRPRPRPPHCPRP are within 0.2 log units of each other in “shrunken log2 fold change” value: 0.0229 for the first, 0.178 for the second.

Going from RRIRWRPPRLPRPRPRPWGGPRP to RRIRGRPPRLPRPRPRPVECPRP, the “shrunken log2 fold change” value falls from 0.556 to 0.289.

RRIRARPPRLPRPRPRPVSHPRP and RRIRSRPPRLPRPRPRPRKFPRP are within 0.2 log units of each other in “shrunken log2 fold change” value: 0.101 for the first, 0.015 for the second.

RRIRTRPPRLPRPRPRPKDVPRP and RRIRKRPPRLPRPRPRPHPDPRP are within 0.2 log units of each other in “shrunken log2 fold change” value: -0.0302 for the first, -0.0313 for the second.

Compared with RRIRHRPPRLPRPRPRPDPDPRP, RRIRTRPPRLPRPRPRPHCLPRP is lower in “shrunken log2 fold change” value: -0.0982 for the first, -0.305 for the second.

Compared with RRIRGRPPRLPRPRPRPIIFPRP, RRIRYRPPRLPRPRPRPEWTPRP is lower in “shrunken log2 fold change” value: 0.437 for the first, -0.247 for the second.

First: RRIRSRPPRLPRPRPRPHNYPRP
Second: RRIRDRPPRLPRPRPRPLLVPRP
The “shrunken log2 fold change” value of the first is lower: -0.372 for the first, 0.134 for the second.

Compared with RRIRTRPPRLPRPRPRPERYPRP, RRIRCRPPRLPRPRPRPYIIPRP is lower in “shrunken log2 fold change” value: 0.0845 for the first, -0.985 for the second.

Compared with RRIRKRPPRLPRPRPRPHKFPRP, RRIRRRPPRLPRPRPRPLCYPRP is lower in “shrunken log2 fold change” value: 0.0822 for the first, -0.236 for the second.

RRIRSRPPRLPRPRPRPQPYPRP and RRIRCRPPRLPRPRPRPDSHPRP are within 0.2 log units of each other in “shrunken log2 fold change” value: -0.159 for the first, -0.199 for the second.

First: RRIRDRPPRLPRPRPRPVTCPRP
Second: RRIRERPPRLPRPRPRPRLYPRP
The “shrunken log2 fold change” value of the first is higher: -0.00663 for the first, -0.448 for the second.

Compared with RRIRYRPPRLPRPRPRPKIIPRP, RRIRSRPPRLPRPRPRPIFNPRP is higher in “shrunken log2 fold change” value: -1.21 for the first, -0.317 for the second.

Compared with RRIRDRPPRLPRPRPRPRSAPRP, RRIRTRPPRLPRPRPRPIPKPRP is lower in “shrunken log2 fold change” value: 0.321 for the first, 0.103 for the second.

Compared with RRIRVRPPRLPRPRPRPFGKPRP, RRIRRRPPRLPRPRPRPTGAPRP is higher in “shrunken log2 fold change” value: -0.151 for the first, 0.633 for the second.

RRIRMRPPRLPRPRPRPFKMPRP and RRIRGRPPRLPRPRPRPLYTPRP are within 0.2 log units of each other in “shrunken log2 fold change” value: 0.0516 for the first, 0.145 for the second.

Compared with RRIRTRPPRLPRPRPRPKFCPRP, RRIRDRPPRLPRPRPRPYFEPRP is lower in “shrunken log2 fold change” value: 0.365 for the first, -0.3 for the second.

Compared with RRIRDRPPRLPRPRPRPSWTPRP, RRIRIRPPRLPRPRPRPAPLPRP is higher in “shrunken log2 fold change” value: -0.274 for the first, 0.276 for the second.

First: RRIRCRPPRLPRPRPRPCWHPRP
Second: RRIRGRPPRLPRPRPRPMEHPRP
The “shrunken log2 fold change” value of the first is lower: -0.169 for the first, 0.171 for the second.

Compared with RRIRHRPPRLPRPRPRPNHSPRP, RRIRHRPPRLPRPRPRPVKWPRP is higher in “shrunken log2 fold change” value: -0.785 for the first, 0.421 for the second.

First: RRIRLRPPRLPRPRPRPVICPRP
Second: RRIRDRPPRLPRPRPRPKFWPRP
The “shrunken log2 fold change” value of the first is lower: -0.16 for the first, 0.442 for the second.

Going from RRIRLRPPRLPRPRPRPNLRPRP to RRIRTRPPRLPRPRPRPYFHPRP, the “shrunken log2 fold change” value falls from -0.0377 to -0.909.

RRIRVRPPRLPRPRPRPHFDPRP and RRIRKRPPRLPRPRPRPGHIPRP are within 0.2 log units of each other in “shrunken log2 fold change” value: 0.0221 for the first, -0.0657 for the second.

Going from RRIRHRPPRLPRPRPRPGSFPRP to RRIRKRPPRLPRPRPRPEKRPRP, the “shrunken log2 fold change” value rises from -0.176 to 0.81.

First: RRIRRRPPRLPRPRPRPEAAPRP
Second: RRIRRRPPRLPRPRPRPYLAPRP
The “shrunken log2 fold change” value of the first is higher: 1.31 for the first, -0.185 for the second.

First: RRIRVRPPRLPRPRPRPWVDPRP
Second: RRIRFRPPRLPRPRPRPYWAPRP
The “shrunken log2 fold change” value of the first is higher: 0.0379 for the first, -0.328 for the second.

RRIRDRPPRLPRPRPRPKMKPRP and RRIRIRPPRLPRPRPRPDTVPRP are within 0.2 log units of each other in “shrunken log2 fold change” value: -0.42 for the first, -0.301 for the second.

First: RRIRHRPPRLPRPRPRPNMHPRP
Second: RRIRGRPPRLPRPRPRPCLMPRP
The “shrunken log2 fold change” value of the first is higher: 1.05 for the first, 0.0827 for the second.

RRIRPRPPRLPRPRPRPDDVPRP and RRIRKRPPRLPRPRPRPAYQPRP are within 0.2 log units of each other in “shrunken log2 fold change” value: -0.0212 for the first, 0.0163 for the second.

RRIRTRPPRLPRPRPRPAMVPRP and RRIRMRPPRLPRPRPRPVQVPRP are within 0.2 log units of each other in “shrunken log2 fold change” value: -0.208 for the first, -0.00884 for the second.

Going from RRIRRRPPRLPRPRPRPYNKPRP to RRIRTRPPRLPRPRPRPMLAPRP, the “shrunken log2 fold change” value rises from -0.664 to 0.306.

RRIRGRPPRLPRPRPRPKHSPRP and RRIRHRPPRLPRPRPRPKSWPRP are within 0.2 log units of each other in “shrunken log2 fold change” value: 0.209 for the first, 0.26 for the second.

RRIRQRPPRLPRPRPRPYQIPRP and RRIRNRPPRLPRPRPRPYLSPRP are within 0.2 log units of each other in “shrunken log2 fold change” value: -0.227 for the first, -0.169 for the second.

First: RRIRYRPPRLPRPRPRPAWHPRP
Second: RRIRNRPPRLPRPRPRPIYWPRP
The “shrunken log2 fold change” value of the first is lower: -0.249 for the first, 0.0553 for the second.

RRIRQRPPRLPRPRPRPDYPPRP and RRIRQRPPRLPRPRPRPFMRPRP are within 0.2 log units of each other in “shrunken log2 fold change” value: 0.00454 for the first, -0.0303 for the second.

First: RRIRERPPRLPRPRPRPKVAPRP
Second: RRIRWRPPRLPRPRPRPGDAPRP
The “shrunken log2 fold change” value of the first is lower: 0.0804 for the first, 0.418 for the second.

Going from RRIRVRPPRLPRPRPRPQFTPRP to RRIRDRPPRLPRPRPRPTADPRP, the “shrunken log2 fold change” value rises from -0.697 to 0.133.

Going from RRIRIRPPRLPRPRPRPTELPRP to RRIRHRPPRLPRPRPRPWCVPRP, the “shrunken log2 fold change” value falls from -0.0944 to -0.386.

First: RRIRDRPPRLPRPRPRPCIEPRP
Second: RRIRRRPPRLPRPRPRPCAWPRP
The “shrunken log2 fold change” value of the first is lower: -0.158 for the first, 0.0864 for the second.

Going from RRIRQRPPRLPRPRPRPVPCPRP to RRIRDRPPRLPRPRPRPSIWPRP, the “shrunken log2 fold change” value rises from 0.0476 to 0.262.

Going from RRIRYRPPRLPRPRPRPDRGPRP to RRIRKRPPRLPRPRPRPPIYPRP, the “shrunken log2 fold change” value rises from -0.213 to 0.0758.

First: RRIRCRPPRLPRPRPRPVQYPRP
Second: RRIRWRPPRLPRPRPRPEFGPRP
The “shrunken log2 fold change” value of the first is lower: -0.203 for the first, 0.393 for the second.

Compared with RRIRYRPPRLPRPRPRPGQNPRP, RRIRLRPPRLPRPRPRPPFCPRP is higher in “shrunken log2 fold change” value: -0.01 for the first, 0.701 for the second.

Compared with RRIRLRPPRLPRPRPRPSWWPRP, RRIRQRPPRLPRPRPRPCAFPRP is lower in “shrunken log2 fold change” value: 1.77 for the first, -0.254 for the second.

RRIRFRPPRLPRPRPRPTSCPRP and RRIRQRPPRLPRPRPRPWFFPRP are within 0.2 log units of each other in “shrunken log2 fold change” value: -0.0685 for the first, -0.0396 for the second.

First: RRIRHRPPRLPRPRPRPWCFPRP
Second: RRIRFRPPRLPRPRPRPKAYPRP
The “shrunken log2 fold change” value of the first is lower: -0.688 for the first, -0.436 for the second.

Going from RRIRRRPPRLPRPRPRPDPVPRP to RRIRFRPPRLPRPRPRPAFAPRP, the “shrunken log2 fold change” value rises from 0.0811 to 0.33.

RRIRKRPPRLPRPRPRPRQMPRP and RRIRERPPRLPRPRPRPCMHPRP are within 0.2 log units of each other in “shrunken log2 fold change” value: 0.0035 for the first, -0.0148 for the second.

RRIRKRPPRLPRPRPRPRVIPRP and RRIRCRPPRLPRPRPRPTSVPRP are within 0.2 log units of each other in “shrunken log2 fold change” value: 0.0832 for the first, 0.0631 for the second.

Compared with RRIRIRPPRLPRPRPRPIFHPRP, RRIRNRPPRLPRPRPRPVMGPRP is higher in “shrunken log2 fold change” value: -0.411 for the first, 0.147 for the second.

Compared with RRIRMRPPRLPRPRPRPVVHPRP, RRIRTRPPRLPRPRPRPYKLPRP is lower in “shrunken log2 fold change” value: 0.0142 for the first, -0.215 for the second.

Going from RRIRLRPPRLPRPRPRPQHMPRP to RRIRERPPRLPRPRPRPLVPPRP, the “shrunken log2 fold change” value rises from -0.767 to -0.182.

In the case of RRIRARPPRLPRPRPRPLTCPRP, the “shrunken log2 fold change” value is reported as -0.248.
